Data from US5362864, “Trans-activating factor-1” (The Trustees of the Rockefeller University).

Legend:
[1] = target: T1, truncated TAF-1 (p5a product from Met-22) (Nicotiana tabacum, UniProt Q99142 SEQ:1-244); test: competition; 60 ng gave about 50% competition; increased affinity also in direct EMSA; settings: tags: expressed from pSK(-) lacZ promoter in E. coli, ammonium sulfate fraction; chain copies: 2 (inferred)
T1 sequence: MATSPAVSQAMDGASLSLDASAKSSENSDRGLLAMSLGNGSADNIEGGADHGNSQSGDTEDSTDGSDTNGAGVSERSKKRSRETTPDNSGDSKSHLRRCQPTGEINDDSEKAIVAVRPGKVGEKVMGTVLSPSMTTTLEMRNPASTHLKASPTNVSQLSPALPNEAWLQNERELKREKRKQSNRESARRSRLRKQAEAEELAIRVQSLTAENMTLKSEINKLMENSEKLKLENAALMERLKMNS
Text: (§1) FIG. 4A. TAF-1 preferentially binds to a perfect palindromic sequence. Tetramers of WT motif I, the mutant M1, and the perfect palindrome (PA), […], (SEQ. ID NO: 9) were used as probes in gel mobility shift-assays with E. coli extracts containing the truncated TAF-1. F, free probe; NC, non-specific complex. The specific complexes, indicated with arrowheads, have a slower mobility as compared to the non-specific complex. FIG. 4B. Relative binding affinities of TAF-1 to motif I (WT) and related sequences. WT motif I tetramer was used as a probe in gel mobility shift assays with E. coli extracts containing the truncated TAF-1. Different concentrations of tetramers of mutants M1 to M5, as well as the tetramer of the perfect palindromic sequence (PA) were tested for their ability to compete with the WT sequence for TAF-1. For WT, PA, M1 and M5, the concentrations that gave approximately 50% competition were used in the experiments shown here. Higher concentrations were used for mutants M2, M3 and M4. Comp., Competitor. FIG. 4C. Nucleotide sequences of WT (SEQ. ID NO: 11), mutants M1 to M5 (SEQ. ID NOS: 10, 13, 14, 15 and 12), and the perfect palindrome, PA (SEQ. ID NO: 9). In this figure, the WT motif I of the tetramer is shown with the TACGTG hexanucleotide as the core sequence. The 5' nucleotide G of the motif is derived from the 3' nucleotide of the preceding motif in the tetramer. […]

[2] = target: T1, truncated TAF-1 (p5a product from …); test: competition; 3 ng gave about 50% competition against WT probe; 200 ng needed for WT; direct EMSA also stronger than WT (FIG. 4A); settings: tags: expressed from pSK(-) lacZ promoter in E. coli, ammonium sulfate fraction; chain copies: 2 (inferred)
Text: as §1

[3] = target: T1, truncated TAF-1 (p5a product from …); test: competition; self competition; direct EMSA complexes in FIG. 2D; poly(dI-dC); settings: tags: expressed from pSK(-) lacZ promoter in E. coli, ammonium sulfate fraction; chain copies: 2 (inferred); label: fill-in labelled
Text: as §1

B1: M1 tetramer (dsDNA)
DNA 1: CAACGTGGCGCAACGTGGCGCAACGTGGCGCAACGTGGCG
DNA 2: CGCCACGTTGCGCCACGTTGCGCCACGTTGCGCCACGTTG
B1 showed a binding signal [1] of 3.3 fold vs WT.

B2: PA perfect palindrome (G-box) tetramer (dsDNA)
DNA 1: GCCACGTGGCGCCACGTGGCGCCACGTGGCGCCACGTGGC
DNA 2: B2 DNA 1
With B2 the binding signal [2] was ~66 fold vs WT.

B3: motif I WT tetramer (dsDNA)
DNA 1: GTACGTGGCGGTACGTGGCGGTACGTGGCGGTACGTGGCG
DNA 2: CGCCACGTACCGCCACGTACCGCCACGTACCGCCACGTAC
In the case of B3, the IC50 [3] is reported as ~200 ng.
